In the supplement of paper PMC12042874 one finds amyloid nucleation score data, which are given here for 142 substances.

± gives the uncertainty stated by the source.

This data set is described as follows: amyloid nucleation score (Sup35N fusion, yeast selection) (log enrichment); library NNK1; higher = more nucleation; inactive = no reads after selection. The method in brief:
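The nucleation score is the DiMSum log enrichment of output over input reads, centred on the mode score of non-aggregating sequences. Only sequences with 100 or more input reads were scored, using Illumina sequencing of input and output plasmid inserts. Psi-negative yeast expressing Sup35N fused to peptides of 20 random codons were induced 24 hours with 100 μM copper sulfate and grown 7 days at 30°C on medium lacking adenine and uracil.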

LYHSVSSVEDLQSDACTSCM: the amyloid nucleation score turned out to be 6.728 ± 0.046.

Substance ALSSNVGSMAFSR came in with an amyloid nucleation score of -0.06 ± 0.88.

In the case of FKVIYARFVTIWVAVRRAFL, the amyloid nucleation score was found to be 0.051 ± 0.69.

Turning to TLRVLFCRTMRRVDWSVQKV, the amyloid nucleation score was -1.03 ± 1.7.

Substance LSRSYYNQFLTDFKGSGTYM showed an amyloid nucleation score of -0.269 ± 0.64.

For the substance DARLC, the amyloid nucleation score was -0.226 ± 1.

In turn, FCSSSLFHKVTLG showed an amyloid nucleation score of -0.043 ± 0.77.

On to MLIFNGFTLLVMRVEVAVGS, for which the amyloid nucleation score is 0.066 ± 0.64.

In the case of GYSNFTNYLFQ, the amyloid nucleation score amounted to 0.091 ± 0.28.

Regarding HVMIFVIFPENYNICTFMKY, the amyloid nucleation score came out at 2.29 ± 0.2.

The substance RIGFPSQSGLLVVAVLTQSA registered an amyloid nucleation score of -0.379 ± 0.43.

Substance PVCHLSGFFFLYDSGCSD came in with an amyloid nucleation score of 4.82 ± 0.069.

Substance LSHWAIVFVICGPRSKKGGS showed an amyloid nucleation score of -0.115 ± 1.

For the substance NTHILYVWSVMCGHMN, the amyloid nucleation score is 3.35 ± 0.11.

The substance FRGFVVGGGT showed an amyloid nucleation score of -0.664 ± 0.61.

As to VSTYRRDIMLHVITIENKLT, the amyloid nucleation score worked out at 2.29 ± 0.6.

For SEMPIFYLWDPQSGQRSWDG, the amyloid nucleation score was found to be 0.036 ± 0.93.

With PMLNFEIMVRHDRRRLYKVC, the amyloid nucleation score was determined as 0.714 ± 0.42.

Substance GVVGYGIWHSLGVRLIQNLC gave an amyloid nucleation score of 0.389 ± 0.93.

Consider ELSGGA, for which the amyloid nucleation score was 3.75 ± 0.1.

Consider HSVSRCLVNEGNGFSFCKDP, for which the amyloid nucleation score was determined as 1.45 ± 0.39.

FPLAIVLIVN: the amyloid nucleation score amounted to 0.059 ± 0.39.

On to PCFSLLDSQRFVFGAKIILR, for which the amyloid nucleation score turned out to be 0.093 ± 0.69.

YEQVNIRNG displayed an amyloid nucleation score of 0.138 ± 0.87.

For the substance SVMAGSYITPVRMRKKKLFV, the amyloid nucleation score entry was “inactive”.

With ISRSNTLYAIFCARPAKVSL, the amyloid nucleation score was -0.235 ± 0.6.

Take LCQSYGCFVPYYLYDFHRVV: the amyloid nucleation score is 6.521 ± 0.059.

The substance WFYDAAFTMKVTVAIFVFFR showed an amyloid nucleation score of 0.675 ± 0.71.

For the substance YCAFTSLRIIRISNIFIRHE, the amyloid nucleation score result is “inactive”.

Substance WGSASRLKVTLRRVRYTTTG had an amyloid nucleation score of 0.813 ± 0.71.

As for CCRVISIWG, the amyloid nucleation score came to 0.115 ± 0.54.

Regarding FDGFNFISWIVR, the amyloid nucleation score worked out at 2.06 ± 0.11.

The substance WSIEWFYSMSYARIDME had an amyloid nucleation score of -1.23 ± 0.79.

For HCPELLLPPSKCTIINGNDK, the amyloid nucleation score amounted to 1.52 ± 0.38.

SGINLLFVFS yielded an amyloid nucleation score of 2.95 ± 0.25.

As for QLLSISRILLMNRELRRR, the amyloid nucleation score is -0.623 ± 1.

In turn, VKYGTLYEGRNDLIDVR displayed an amyloid nucleation score of 0.635 ± 0.62.

As for IYRMRDNMNSRLRVYFNRVF, the amyloid nucleation score entry was “inactive”.

On to FWSMIGLWILDC, for which the amyloid nucleation score was determined as 0.031 ± 0.25.

Regarding STTIPRVFGSTYNSYNVSIS, the amyloid nucleation score was determined as 0.384 ± 0.34.

As for RMYYT, the amyloid nucleation score was -1.52 ± 0.82.

With VLPMTGYSRLRPIYRFMFFD, the amyloid nucleation score was determined as 0.273 ± 0.44.

The substance IFGYMSGS had an amyloid nucleation score of 0.543 ± 0.63.

With RCVFNRIKDFSVRDRWSFSG, the amyloid nucleation score was determined as 1.03 ± 0.73.

On to IKATGTRPRIHRYFGNC, for which the amyloid nucleation score was -0.173 ± 0.58.

Substance HFLVKCLLLLSVSSKLCVSR returned an amyloid nucleation score of 0.564 ± 0.33.

Turning to MGDVFILFLLAGFLEDHNGY, the amyloid nucleation score was -1.24 ± 0.45.

With MYISRFRF, the amyloid nucleation score was 3.42 ± 0.15.

In the case of KLSSKWTRACRHNSC, the amyloid nucleation score was -0.134 ± 1.3.

The substance APHWLLRDPIESTADNDVYY displayed an amyloid nucleation score of 2.73 ± 0.44.

As for YYSSHYVDIAHSKE, the amyloid nucleation score was found to be 0.334 ± 0.32.

For the substance DGTNAYV, the amyloid nucleation score is -0.986 ± 0.56.

For YTTASDNHVWSWLEYWVRVI, the amyloid nucleation score worked out at 0.368 ± 0.56.

In turn, YFLRHCCPD displayed an amyloid nucleation score of -1.8 ± 2.4.

WFARNTLLEWEN gave an amyloid nucleation score of -1.57 ± 2.1.

FWVAIRVRVIWVNKKNDGCI gave an amyloid nucleation score of -0.147 ± 0.66.

For the substance FKEDITFADGISDWSCQYTM, the amyloid nucleation score result is “inactive”.

GNSSNAMKFEIHISSDHVAY: the amyloid nucleation score was 0.845 ± 0.14.

For GWDYLFFLFTFCYV, the amyloid nucleation score was -0.771 ± 1.1.

Consider DMDTQEFLYCSSVKFGSTKD, for which the amyloid nucleation score amounted to 5.408 ± 0.047.

VWVLPRDNVFSIKNYMSFS had an amyloid nucleation score of 6.965 ± 0.045.

On to HFSGYMFCNPLTSGIVNATW, for which the amyloid nucleation score came out at 6.404 ± 0.045.

As to INFQNDELWVLETIGFHTYP, the amyloid nucleation score was -0.256 ± 0.49.

The substance CFEYFY showed an amyloid nucleation score of -0.664 ± 0.32.

VPCDIYQCFYLSG showed an amyloid nucleation score of 5.25 ± 0.094.

LSYCVIG: the amyloid nucleation score result is “inactive”.

As to SHSFPGMWTDDTSALASREK, the amyloid nucleation score was found to be 0.306 ± 0.59.

For the substance SGHNLWRRGQKWSL, the amyloid nucleation score was -0.455 ± 0.58.

For RHMRFPWLKAHVIFIMQWQR, the amyloid nucleation score amounted to 1.16 ± 0.54.

As to CWQSGMCNRSRMQAVRVPHD, the amyloid nucleation score was 0.698 ± 0.56.

VYMRISFNEVMCFVCDTGSW registered an amyloid nucleation score of 7.485 ± 0.046.

Consider VTFWHVFLIFSYLSTCAWWW, for which the amyloid nucleation score was -0.382 ± 1.2.

For the substance RCMGGGFRRRVNMYETPGIR, the amyloid nucleation score is -0.387 ± 0.79.

Consider GKVFVVSVKCNEVVDFGWCQ, for which the amyloid nucleation score was found to be 0.073 ± 0.28.

As for KTWRHSFLYFLTGIESRKGA, the amyloid nucleation score came to 0.094 ± 0.26.

The substance GVSSLLGRHRRGVSFEGDSV registered an amyloid nucleation score of -0.65 ± 0.54.

Turning to GNFKAMWFYPYRRCWQCT, the amyloid nucleation score is -0.944 ± 1.1.

For the substance DWNYKFMGRRLEHMCQVLM, the amyloid nucleation score is -1.03 ± 1.1.

The substance FLQFF registered an amyloid nucleation score of -0.656 ± 0.47.

The substance NSMSNF returned an amyloid nucleation score of -1.08 ± 2.4.

Consider GFWAKSPLAGHSYKGYQLWA, for which the amyloid nucleation score amounted to 1.62 ± 0.57.

Turning to SEIPKSYPNFDYVSFINNSL, the amyloid nucleation score was -0.24 ± 0.39.

GNGHWQQVG yielded an amyloid nucleation score of 0.001 ± 0.33.

DEITLMLA displayed an amyloid nucleation score of 0.155 ± 0.35.

On to INDCYFMWGNLFCYVCVMLL, for which the amyloid nucleation score came out at 1.66 ± 0.46.

Turning to HHTQE, the amyloid nucleation score is -0.557 ± 1.6.

Take DGLTLFLSRNGDYYSFTKIT: the amyloid nucleation score stood at 0.197 ± 0.46.

YQSLVMFMEPDSRVLRVCRA had an amyloid nucleation score of 0.104 ± 0.69.

On to LNNYCCYIAKYVYWW, for which the amyloid nucleation score is 6.089 ± 0.044.

Substance ACHCNIFFHR returned an amyloid nucleation score of 6.325 ± 0.058.

IVYSLLYVRMSSNSMWVSV gave an amyloid nucleation score of 0.958 ± 0.9.

In the case of DCHVRCLRQV, the amyloid nucleation score was found to be 0.611 ± 0.35.

Substance IMMSYRFHFNNSERIRGCVR had an amyloid nucleation score of -0.321 ± 0.26.

For the substance FSFYMLRFFSKTSYYSLMSF, the amyloid nucleation score is -0.721 ± 0.27.

The substance TRAWNGGCGALCRITFDPSC came in with an amyloid nucleation score of 2.6 ± 0.13.

In turn, MTRNHFRYTWSVANMWERGF returned an amyloid nucleation score of -0.746 ± 1.3.

With LISRIS, the amyloid nucleation score stood at 0.303 ± 1.

Consider CCYYTSVILVFDGRFDEMPY, for which the amyloid nucleation score was 4.23 ± 0.07.

TGRSIMPLSYRTYCIDEFVS returned an amyloid nucleation score of 0.004 ± 0.3.

In the case of DQVQGFISFLMLFKDFVSYG, the amyloid nucleation score was -0.028 ± 0.33.

For the substance HPYIWSVPDYKPFRAQAARV, the amyloid nucleation score is -0.029 ± 1.6.

Consider VGTLSRLSFYVVDAVSAQRG, for which the amyloid nucleation score was 0.756 ± 0.81.

VNEREPYNCCFMRFDTCTSP returned an amyloid nucleation score of 1.31 ± 0.63.

Take VLYLMAAPIVMVYV: the amyloid nucleation score turned out to be 4.31 ± 0.061.

The substance SLLNRVGLWRRSSLCLMTGC yielded an amyloid nucleation score of 0.538 ± 0.26.

MEIRYYFVFEEDGRVFEGGT gave an amyloid nucleation score of 0.025 ± 0.43.

Substance GRSAVAFISPPLSLRIAQCP registered an amyloid nucleation score of 0.252 ± 0.28.

Turning to ITMYANMNSGQFTMLESMPD, the amyloid nucleation score is -0.303 ± 0.26.

WNDWSYHCNF gave an amyloid nucleation score of -0.11 ± 0.27.

For PSRDSV, the amyloid nucleation score is -1.06 ± 1.2.

On to MVLDLVRRNAQL, for which the amyloid nucleation score was -0.151 ± 0.68.

In the case of FVSVCD, the amyloid nucleation score is -0.049 ± 1.

As to FVSLNTIFRAYPQIHYRLVR, the amyloid nucleation score result was “inactive”.

ASLSPNTASYNLELPSIMHM yielded an amyloid nucleation score of 0.283 ± 0.71.

ITVLSS came in with an amyloid nucleation score of 1.47 ± 0.46.

Take MLLSFLYLV: the amyloid nucleation score is 5.26 ± 0.049.

HPFYIFAVYIFPYHCLSCSL: the amyloid nucleation score was found to be 0.331 ± 0.33.

HNKVATMW registered an amyloid nucleation score of 1.46 ± 0.25.

Substance FTSSIMEFNESQWVNFTFIW returned an amyloid nucleation score of 4.42 ± 0.053.

As for FIIWHELWKVMWSSTALSLD, the amyloid nucleation score is 0.769 ± 0.69.

AWWRCCGTLRTVRSAAKGLM came in with an amyloid nucleation score of -0.292 ± 1.1.

Regarding SNIQDCYRFEGLHKKTNENL, the amyloid nucleation score was -0.684 ± 0.91.

SGKVVNPCMNDSDLVLNRIW: the amyloid nucleation score is -0.011 ± 0.23.

GQMGPMKREDGVLFVVTREN: the amyloid nucleation score is -0.255 ± 1.1.

As to IRRYPAFFFNVYPSTSMFCS, the amyloid nucleation score was -1.21 ± 0.88.

GRDRSWDIRWLYTLTEPTWH gave an amyloid nucleation score of -1.62 ± 2.7.

Substance WKCWGLCHLQR gave an amyloid nucleation score of -1 ± 0.93.

On to LQERWMAMGGGGQGVVWGFT, for which the amyloid nucleation score is 0.305 ± 0.79.

ILFDLQPKFVRR had an amyloid nucleation score of 0.693 ± 0.48.

In the case of GVACTARCMCKFNRHPGVCE, the amyloid nucleation score is -0.274 ± 1.1.

In the case of DRYSNTTFNHIA, the amyloid nucleation score was determined as 0.779 ± 0.47.

Substance RGDLF had an amyloid nucleation score of 3.04 ± 0.07.

As for YCGKR, the amyloid nucleation score was 1.12 ± 0.58.

Take SELEYPTMGVSVVRLCSSSG: the amyloid nucleation score amounted to 0.1 ± 0.48.

For SGLLS, the amyloid nucleation score was -1.12 ± 0.65.

On to YDLLSLGDTTCRHSEILNRP, for which the amyloid nucleation score stood at 0.924 ± 0.63.

Take YLNILMSWI: the amyloid nucleation score was -0.921 ± 0.66.

Substance DSRCHSSSGDRPTLAVYT returned an amyloid nucleation score of -0.198 ± 1.7.

Take SMPCQWR: the amyloid nucleation score is 0.503 ± 0.51.

On to IETVLIVAY, for which the amyloid nucleation score was found to be 0.355 ± 0.53.

WRTARFSGKF registered an amyloid nucleation score of -0.048 ± 0.4.

Consider TGQACAWGGSVILTVSCDRY, for which the amyloid nucleation score came to 2.43 ± 0.12.
